# Data published in patent US20060263802A1 (CRUCELL HOLLAND B V, published 2006).
# B1: human monoclonal antibody CRJB (antibody, V domains shown)
# VH: QITLKETGPTLVKPTQTLTLTCTFSGFSLSTSGVGVGWIRQPPGKALEWVTLIYWDDDKRYSPSLENRVTIRKDTSKNQVALTMTNMDPLDTGTYYCAHRQHISSFPWFDSWGQGTLVTVSS
# VL: SYVLTQPPSVSVAPGKTARINCGGNNIEYRSVHWYQQKSGQAPVAVIYDNSDRPSGIPERFSGSKSGNTATLTISRVEAGDEADYYCQVWDISSDVVFGGGTKLTVLG
# What was measured:
# Experiment in all cases: PEPSCAN ELISA, looped 15-mer, 10 ug/ml
# [1] = biological target: looped peptide … (rabies virus strain ERA)
# [2] = biological target: looped peptide … (rabies virus strain ERA); remark: listed apart in the source
# [3] = biological target: looped peptide … (rabies virus strain ERA); remark: listed apart in the source
# [4] = biological target: looped peptide … (rabies virus strain ERA); remark: listed apart in the source
# [5] = biological target: looped peptide … (rabies virus strain ERA); remark: listed apart in the source
# [6] = biological target: looped peptide … (rabies virus strain ERA); remark: listed apart in the source
# [7] = biological target: looped peptide … (rabies virus strain ERA); remark: listed apart in the source
# [8] = biological target: looped peptide … (rabies virus strain ERA); remark: listed apart in the source
# [9] = biological target: looped peptide … (rabies virus strain ERA); remark: listed apart in the source
# [10] = biological target: looped peptide … (rabies virus strain ERA); remark: listed apart in the source
# [11] = biological target: looped peptide … (rabies virus strain ERA); remark: listed apart in the source
# [12] = biological target: looped peptide … (rabies virus strain ERA); remark: listed apart in the source
# [13] = biological target: looped peptide … (rabies virus strain ERA); remark: listed apart in the source
# [14] = biological target: looped peptide … (rabies virus strain ERA); remark: listed apart in the source
# [15] = biological target: looped peptide … (rabies virus strain ERA); remark: listed apart in the source
# [16] = biological target: looped peptide … (rabies virus strain ERA); remark: listed apart in the source
# [17] = biological target: looped peptide … (rabies virus strain ERA); remark: listed apart in the source
# [18] = biological target: looped peptide … (rabies virus strain ERA); remark: listed apart in the source
# [19] = biological target: looped peptide … (rabies virus strain ERA); remark: listed apart in the source
# [20] = biological target: looped peptide … (rabies virus strain ERA); remark: listed apart in the source
# [21] = biological target: looped peptide … (rabies virus strain ERA); remark: listed apart in the source
# [22] = biological target: looped peptide … (rabies virus strain ERA); remark: listed apart in the source
# [23] = biological target: looped peptide … (rabies virus strain ERA); remark: listed apart in the source
# [24] = biological target: looped peptide … (rabies virus strain ERA); remark: listed apart in the source
# [25] = biological target: looped peptide … (rabies virus strain ERA); remark: listed apart in the source
# [26] = biological target: looped peptide … (rabies virus strain ERA); remark: listed apart in the source
# [27] = biological target: looped peptide … (rabies virus strain ERA); remark: listed apart in the source
# [28] = biological target: looped peptide … (rabies virus strain ERA); remark: listed apart in the source
# [29] = biological target: looped peptide … (rabies virus strain ERA); remark: listed apart in the source
# [30] = biological target: looped peptide … (rabies virus strain ERA); remark: listed apart in the source
# [31] = biological target: looped peptide … (rabies virus strain ERA); remark: listed apart in the source
# [32] = biological target: looped peptide … (rabies virus strain ERA); remark: listed apart in the source
# [33] = biological target: looped peptide … (rabies virus strain ERA); remark: listed apart in the source
# [34] = biological target: looped peptide … (rabies virus strain ERA); remark: listed apart in the source
# [35] = biological target: looped peptide … (rabies virus strain ERA); remark: listed apart in the source
# [36] = biological target: looped peptide … (rabies virus strain ERA); remark: listed apart in the source
# [37] = biological target: looped peptide … (rabies virus strain ERA); remark: listed apart in the source
# [38] = biological target: looped peptide … (rabies virus strain ERA); remark: listed apart in the source
# [39] = biological target: looped peptide … (rabies virus strain ERA); remark: listed apart in the source
# [40] = biological target: looped peptide … (rabies virus strain ERA); remark: listed apart in the source
# [41] = biological target: looped peptide … (rabies virus strain ERA); remark: listed apart in the source
# [42] = biological target: looped peptide … (rabies virus strain ERA); remark: listed apart in the source
# [43] = biological target: looped peptide … (rabies virus strain ERA); remark: listed apart in the source
# [44] = biological target: looped peptide … (rabies virus strain ERA); remark: listed apart in the source
# [45] = biological target: looped peptide … (rabies virus strain ERA); remark: listed apart in the source
# [46] = biological target: looped peptide … (rabies virus strain ERA); remark: listed apart in the source
# [47] = biological target: looped peptide … (rabies virus strain ERA); remark: listed apart in the source
# [48] = biological target: looped peptide … (rabies virus strain ERA); remark: listed apart in the source
# [49] = biological target: looped peptide … (rabies virus strain ERA); remark: listed apart in the source
# [50] = biological target: looped peptide … (rabies virus strain ERA); remark: listed apart in the source
# [51] = biological target: looped peptide … (rabies virus strain ERA); remark: listed apart in the source
# [52] = biological target: looped peptide … (rabies virus strain ERA); remark: listed apart in the source
# [53] = biological target: looped peptide … (rabies virus strain ERA); remark: listed apart in the source
# [54] = biological target: looped peptide … (rabies virus strain ERA); remark: listed apart in the source
# [55] = biological target: looped peptide … (rabies virus strain ERA); remark: listed apart in the source
# [56] = biological target: looped peptide … (rabies virus strain ERA); remark: listed apart in the source
# [57] = biological target: looped peptide … (rabies virus strain ERA); remark: listed apart in the source
# [58] = biological target: looped peptide … (rabies virus strain ERA); remark: listed apart in the source
# [59] = biological target: looped peptide … (rabies virus strain ERA); remark: listed apart in the source
# [60] = biological target: looped peptide … (rabies virus strain ERA); remark: listed apart in the source
# [61] = biological target: looped peptide … (rabies virus strain ERA); remark: listed apart in the source
# [62] = biological target: looped peptide … (rabies virus strain ERA); remark: listed apart in the source
# [63] = biological target: looped peptide … (rabies virus strain ERA); remark: listed apart in the source
# [64] = biological target: looped peptide … (rabies virus strain ERA); remark: listed apart in the source
# [65] = biological target: looped peptide … (rabies virus strain ERA); remark: listed apart in the source
# [66] = biological target: looped peptide … (rabies virus strain ERA); remark: listed apart in the source
# [67] = biological target: looped peptide … (rabies virus strain ERA); remark: listed apart in the source
# [68] = biological target: looped peptide … (rabies virus strain ERA); remark: listed apart in the source
binder,measurement,setting,value
B1,OD value,[1],72
same,OD value,[2],89
same,OD value,[3],82
same,OD value,[4],75
same,OD value,[5],108
same,OD value,[6],104
same,OD value,[7],100
same,OD value,[8],66
same,OD value,[9],111
same,OD value,[10],85
same,OD value,[11],101
same,OD value,[12],23
same,OD value,[13],89
same,OD value,[14],76
same,OD value,[15],72
same,OD value,[16],90
same,OD value,[17],104
same,OD value,[18],79
same,OD value,[19],88
same,OD value,[20],74
same,OD value,[21],84
same,OD value,[22],62
same,OD value,[23],106
same,OD value,[24],106
same,OD value,[25],79
same,OD value,[26],60
same,OD value,[27],66
same,OD value,[28],82
same,OD value,[29],83
same,OD value,[30],127
same,OD value,[31],83
same,OD value,[32],93
same,OD value,[33],97
same,OD value,[34],62
same,OD value,[35],83
same,OD value,[36],105
same,OD value,[37],79
same,OD value,[38],66
same,OD value,[39],57
same,OD value,[40],89
same,OD value,[41],94
same,OD value,[42],89
same,OD value,[43],72
same,OD value,[44],27
same,OD value,[45],27
same,OD value,[46],34
same,OD value,[47],58
same,OD value,[48],85
same,OD value,[49],93
same,OD value,[50],64
same,OD value,[51],83
same,OD value,[52],93
same,OD value,[53],78
same,OD value,[54],72
same,OD value,[55],79
same,OD value,[56],25
same,OD value,[57],90
same,OD value,[58],103
same,OD value,[59],82
same,OD value,[60],73
same,OD value,[61],89
same,OD value,[62],82
same,OD value,[63],73
same,OD value,[64],92
same,OD value,[65],96
same,OD value,[66],75
same,OD value,[67],33
same,OD value,[68],65
